Like-named read-outs stand apart in the source and are kept apart here.
How the values were obtained:
[1] = target: Gβ1γ2 (UniProt P54311+P63212); assay: Competition phage ELISA: inhibition of SIGK-phage binding to immobilized biotinylated Gβ1γ2; parameters: made in house; host or cells: Sf9 insect cells (baculovirus; co-expressed with BirA and (His)6-Gαi1, from which βγ was eluted); species or system rat
Experimental: Phage ELISA assays used to assess peptide binding to wild-type and mutant b-βγ were performed according to standard methods (Smrcka and Scott (2002) Methods Enzymol. 344:557-76). Briefly, 1 μg streptavidin was immobilized in the well of a […] overnight at 4° C. The wells were blocked with 100 μL of 2% bovine serum albumin (BSA) in Tris-buffered saline (TBS) for 1 hour at 4° C. followed by three washes of IX TBS/0.5% TWEEN®. […] The wells were washed, followed by the addition of IxIO^6 to IxIO^10 phage particles and incubated at 4° C. for 3 hours. The wells were then washed six times with TBS/0.5% TWEEN® followed by addition of 40 μL of 1:5000 dilution of anti-M13 antibody (Pharmacia, Uppsala, Sweden) and incubated at room temperature for 1 hour. The wells were washed, followed by the addition of 40 μL of (2,2′-Azino-bis (3-ethylbenzthiazoline)-6-sulfonic acid (ABTS) and the colorimetric reaction was monitored at 405 nm. Nonspecific binding was subtracted for each reading.
A phage ELISA assay was used to determine whether small molecules identified in the computational screen could interact with the Gβy protein interaction surface. […] The screen was based on a reduction in the optical density (OD) of wells containing Gβγ subunits and phage. […] Three background wells contained no βy subunits.
As disclosed herein, biotinylated Gβy subunits were immobilized on the surface of a 96-well plate coated with streptavidin, phage displaying Gβγ-binding peptides were subsequently added and binding in the presence and absence of test compounds detected with an anti-phage antibody.
The phage ELISA assay was used to rapidly screen the ability of compounds to bind to the protein interaction “hot spot” based on the method of Scott et. al (Scott et al., 2001). This assay is performed in the presence of detergent (0.5% Tween) to eliminate non-specific compound aggregation artifacts.
Compounds/DMSO and 0.1×10^10 phage were added simultaneously and subsequently incubated for 1 h at room temperature. Plates were then washed with 1× Tris-buffered saline/0.5% Tween 20 and incubated with anti-M13, HRP-conjugated antibody (Amersham, Chalfont St. Giles, Buckinghamshire, UK). Phage binding was determined by monitoring A405 upon addition of 2,2′-azino-bis(3-ethylbenzothiazoline-6-sulfonic acid) (Sigma Aldrich).

[2] = target: T1, Gβ1γ2 (Gβ1 mutants) (UniProt P54311+P63212, H311A); assay: Phage ELISA: binding of peptide-displaying phage to wild-type or alanine-substituted b-βγ; parameters: species or system rat; conditions: Gβ1 His311Ala; mean ± SD
T1 construct: made in house; host or cells: Sf9 insect cells (baculovirus), partially purified via (His)6-Gαi1 on Ni-NTA
Description: (§1) Wild-type Gβ1 and Gp1 mutants were made in the baculovirus vector PDW464 which encodes a biotinylation site at a lysine upstream of the amino terminus of Gβ1 (Goubaeva, et al. (2003) supra). Mutants were generated by overlap extension PCR using standard protocols. The wild-type and mutant Gβ1 constructs consisted of a 20 amino acid biotin acceptor peptide (BAP) sequence fused in-frame with the amino-terminus of rat Gβ1 subunit. When coexpressed with biotin holoenzyme synthetase (BirA) in Sf9 cells, the Gβ1 subunit becomes covalently biotinylated in vivo at the specific lysine acceptor residue in the BAP. Using this approach, 1-2 mg protein of purified protein can be obtained per liter of Sf9 insect cells. As 45 ng of protein is used in the phage ELISA assay, a single purification is sufficient for 10,000 to 30,000 binding assays.
(§2) Phage ELISA assays used to assess peptide binding to wild-type and mutant b-βγ were performed according to standard methods (Smrcka and Scott (2002) Methods Enzymol. 344:557-76). Briefly, 1 μg streptavidin was immobilized in the well of a […] overnight at 4° C. The wells were blocked with 100 μL of 2% bovine serum albumin (BSA) in Tris-buffered saline (TBS) for 1 hour at 4° C. followed by three washes of IX TBS/0.5% TWEEN®. Forty μL of 25 nM bGβ1γ2 in TBS/0.5% TWEEN® was added to each well and incubated at 4° C. for 1.5 hour. The wells were washed, followed by the addition of IxIO^6 to IxIO^10 phage particles and incubated at 4° C. for 3 hours. The wells were then washed six times with TBS/0.5% TWEEN® followed by addition of 40 μL of 1:5000 dilution of anti-M13 antibody (Pharmacia, Uppsala, Sweden) and incubated at room temperature for 1 hour. The wells were washed, followed by the addition of 40 μL of (2,2′-Azino-bis (3-ethylbenzthiazoline)-6-sulfonic acid (ABTS) and the colorimetric reaction was monitored at 405 nm. Nonspecific binding was subtracted for each reading.
(§3) The nine peptides were selected to represent the different consensus groups of peptides previously identified (See Scott et al. (2001) supra; Table 15) and to compare binding characteristics within and between consensus groups. […] As disclosed herein, the binding signal obtained in the ELISA assay was correlated to a loss in affinity by comparing the results to behavior of the peptide in a solution based assay. […] For the purposes of present disclosure, any substitution that decreased the binding to less than 20% of the wild-type binding was considered to be a critical binding contact for that peptide.

[3] = target: T2, Gβ1γ2 (Gβ1 mutants) (UniProt P54311+P63212, K57A); assay: as above; parameters: species or system rat; conditions: Gβ1 Lys57Ala; mean ± SD
T2 construct: made in house; host or cells: Sf9 insect cells (baculovirus), partially purified via (His)6-Gαi1 on Ni-NTA
Description: as §1, §2, §3

[4] = target: T3, Gβ1γ2 (Gβ1 mutants) (UniProt P54311+P63212, W332A); assay: as above; parameters: species or system rat; conditions: Gβ1 Trp332Ala; mean ± SD
T3 construct: made in house; host or cells: Sf9 insect cells (baculovirus), partially purified via (His)6-Gαi1 on Ni-NTA
Description: as §1, §2, §3

[5] = target: T4, Gβ1γ2 (Gβ1 mutants) (UniProt P54311+P63212, R314A); assay: as above; parameters: species or system rat; conditions: Gβ1 Arg314Ala; mean ± SD
T4 construct: made in house; host or cells: Sf9 insect cells (baculovirus), partially purified via (His)6-Gαi1 on Ni-NTA
Description: as §1, §2, §3

[6] = target: T5, Gβ1γ2 (Gβ1 mutants) (UniProt P54311+P63212, M101A); assay: as above; parameters: species or system rat; conditions: Gβ1 Met101Ala; mean ± SD
T5 construct: made in house; host or cells: Sf9 insect cells (baculovirus), partially purified via (His)6-Gαi1 on Ni-NTA
Description: as §1, §2, §3

[7] = target: T6, Gβ1γ2 (Gβ1 mutants) (UniProt P54311+P63212, Y145A); assay: as above; parameters: species or system rat; conditions: Gβ1 Tyr145Ala; mean ± SD
T6 construct: made in house; host or cells: Sf9 insect cells (baculovirus), partially purified via (His)6-Gαi1 on Ni-NTA
Description: as §1, §2, §3

[8] = target: T7, Gβ1γ2 (Gβ1 mutants) (UniProt P54311+P63212, Y59A); assay: as above; parameters: species or system rat; conditions: Gβ1 Tyr59Ala; mean ± SD
T7 construct: made in house; host or cells: Sf9 insect cells (baculovirus), partially purified via (His)6-Gαi1 on Ni-NTA
Description: as §1, §2, §3

[9] = target: T8, Gβ1γ2 (Gβ1 mutants) (UniProt P54311+P63212, W99A); assay: as above; parameters: species or system rat; conditions: Gβ1 Trp99Ala; mean ± SD
T8 construct: made in house; host or cells: Sf9 insect cells (baculovirus), partially purified via (His)6-Gαi1 on Ni-NTA
Description: as §1, §2, §3

[10] = target: T9, Gβ1γ2 (Gβ1 mutants) (UniProt P54311+P63212, M188A); assay: as above; parameters: species or system rat; conditions: Gβ1 Met188Ala; mean ± SD
T9 construct: made in house; host or cells: Sf9 insect cells (baculovirus), partially purified via (His)6-Gαi1 on Ni-NTA
Description: as §1, §2, §3

[11] = target: T10, Gβ1γ2 (Gβ1 mutants) (UniProt P54311+P63212, D246S); assay: as above; parameters: species or system rat; conditions: Gβ1 Asp246Ser; mean ± SD
T10 construct: made in house; host or cells: Sf9 insect cells (baculovirus), partially purified via (His)6-Gαi1 on Ni-NTA
Description: as §1, §2, §3

[12] = target: T11, Gβ1γ2 (Gβ1 mutants) (UniProt P54311+P63212, N230A); assay: as above; parameters: species or system rat; conditions: Gβ1 Asn230Ala; mean ± SD
T11 construct: made in house; host or cells: Sf9 insect cells (baculovirus), partially purified via (His)6-Gαi1 on Ni-NTA
Description: as §1, §2, §3

[13] = target: T12, Gβ1γ2 (Gβ1 mutants) (UniProt P54311+P63212, D186A); assay: as above; parameters: species or system rat; conditions: Gβ1 Asp186Ala; mean ± SD
T12 construct: made in house; host or cells: Sf9 insect cells (baculovirus), partially purified via (His)6-Gαi1 on Ni-NTA
Description: as §1, §2, §3

[14] = target: T13, Gβ1γ2 (Gβ1 mutants) (UniProt P54311+P63212, L117A); assay: as above; parameters: species or system rat; conditions: Gβ1 Leu117Ala; mean ± SD
T13 construct: made in house; host or cells: Sf9 insect cells (baculovirus), partially purified via (His)6-Gαi1 on Ni-NTA
Description: as §1, §2, §3

[15] = kind of constant not stated, read-out: binding to the G protein β subunit

`Ic1ccc2c(c1)N(c1ccccc1)c1cc(Nc3ccc4c(c3)N(c3ccccc3)c3cc(I)ccc3N4)ccc1N2` showed an IC50 ([1]; Table 7, read-out: ELISA IC50) of 2000 nM.

In the case of `O=C(O)/C=C/c1c2ccc(=O)c(O)c-2oc2c(O)c(O)ccc12` [(E)-3-(4,5,6-trihydroxy-3-oxo-3H-xanthen-9-yl)acrylic acid], the IC50 [1, 15] is reported as 200 nM.

`O=C(O)C1C2C=CC(C2)C1c1c2ccc(=O)cc-2oc2cc(O)ccc12` (stereo not drawn) [3-(6-hydroxy-3-oxo-3H-xanthen-9yl)bicyclo[2.2.1]hept-5-ene-2-carboxylic acid] showed an IC50 [1, 15] of 14000 nM.

In the case of SIGKALFILGYPDYD [Compound 3.14], the “% of Wild-Type Signal” value [2] is reported as 93.4 ± 21.5%, the “% of Wild-Type Signal” value [3] is reported as 18.6 ± 4.6% and the “% of Wild-Type Signal” value [4] is reported as 7.1 ± 3.7%. For the same molecule, the “% of Wild-Type Signal” value [5] was 50.2 ± 5.0%, the “% of Wild-Type Signal” value [6] was 26.8 ± 12.5% and the “% of Wild-Type Signal” value [7] was 0.8 ± 0.9%. For the same molecule, the “% of Wild-Type Signal” value [8] was 24.7 ± 15.2%, the “% of Wild-Type Signal” value [9] was 66.0 ± 7.7% and the “% of Wild-Type Signal” value [10] was 2.5 ± 3.7%. For the same molecule, the “% of Wild-Type Signal” value [11] was 66.5 ± 7.5%, the “% of Wild-Type Signal” value [12] was 22.4 ± 4.2% and the “% of Wild-Type Signal” value [13] was 14.4 ± 13.4%. For the same molecule, the “% of Wild-Type Signal” value [14] was 2.1 ± 2.4%.

`Nc1ccc(Nc2cc(S(=O)(=O)O)c(N)c3c2C(=O)c2ccccc2C3=O)cc1` [drawing 51] was tested, and the IC50 ([1]; Table 2, read-out: Elisa IC50) was 12000 nM.

In the case of SCKRTKAQILLAPCT [Compound C1], the “% of Wild-Type Signal” value [2] is reported as 3.0 ± 4.0%, the “% of Wild-Type Signal” value [3] is reported as 0.1 ± 1.6% and the “% of Wild-Type Signal” value [4] is reported as −0.3 ± 2.5%. The “% of Wild-Type Signal” value [5] was 2.8 ± 1.6%, the “% of Wild-Type Signal” value [6] was 70.5 ± 35.3% and the “% of Wild-Type Signal” value [7] was 88.0 ± 29.9%. For the same molecule, the “% of Wild-Type Signal” value [8] was 0.3 ± 0.7%, the “% of Wild-Type Signal” value [9] was 1.2 ± 2.7% and the “% of Wild-Type Signal” value [10] was 4.0 ± 3.4%. For the same molecule, the “% of Wild-Type Signal” value [11] was 2.3 ± 3.0%, the “% of Wild-Type Signal” value [12] was 19.8 ± 12.3% and the “% of Wild-Type Signal” value [13] was 1.4 ± 1.7%. For the same molecule, the “% of Wild-Type Signal” value [14] was 5.2 ± 3.1%.

In the case of `Nc1cccc(Nc2cc(S(=O)(=O)O)c(N)c3c2C(=O)c2ccccc2C3=O)c1` [drawing 52], the IC50 ([1]; Table 2, read-out: Elisa IC50) is reported as 19000 nM.

`Cc1cc(N)c2cc(CC(=O)C(C)(C)C(=O)Nc3ccc4nc(C)cc(N)c4c3)ccc2n1` was tested, and the IC50 ([1]; Table 7, read-out: ELISA IC50) was 74000 nM.

Molecule `O=C(O)C1CC23C(Cl)C(Cl)C(Cl)C(Cl)C2(CC1c1c2ccc(=O)c(O)c-2oc2c(O)c(O)ccc12)C3(Cl)Cl` (stereo not drawn) has an IC50 ([1]; Table 6) of 200 nM.

In the case of `O=C(O)C1CCCCC1c1c2ccc(=O)c(O)c-2oc2c(O)c(O)ccc12` (stereo not drawn) [drawing 103], the IC50 ([1]; SIGK IC50, Table 6) is reported as 200 nM.

Molecule `CC1C2C=CC1C(c1c3ccc(=O)c(O)c-3oc3c(O)c(O)ccc13)C2C(=O)O` (stereo not drawn) has an IC50 ([1]; Table 6) of 700 nM.

In the case of `Cc1c2cc(O)c(=O)cc-2oc2cc(O)c(O)cc12` [2,6,7-trihydroxy-9-methyl-3H-xanthen-3-one], the “binding to the G protein β subunit” value ([1]; result in words) is reported as “did not provide a compound that exhibited binding”.
